Assays:
human VEGFA-165 (human) = human VEGFA-165 (human) (UniProt P15692); assay: KinExA, VEGFA-165; set-up for VEGFA-165 not described
[1] = target: human VEGFA-121-His (human) (UniProt P15692); assay: KinExA equilibrium titration in solution, VEGFA-121
Sequence of human VEGFA-121-His (human) (P15692 other isoform, or with tags, fused parts or gaps): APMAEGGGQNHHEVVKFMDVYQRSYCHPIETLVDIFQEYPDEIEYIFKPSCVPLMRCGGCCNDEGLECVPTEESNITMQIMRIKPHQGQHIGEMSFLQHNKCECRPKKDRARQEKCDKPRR

Sequence of Aflibercept-analogue (Fc fusion) (chain): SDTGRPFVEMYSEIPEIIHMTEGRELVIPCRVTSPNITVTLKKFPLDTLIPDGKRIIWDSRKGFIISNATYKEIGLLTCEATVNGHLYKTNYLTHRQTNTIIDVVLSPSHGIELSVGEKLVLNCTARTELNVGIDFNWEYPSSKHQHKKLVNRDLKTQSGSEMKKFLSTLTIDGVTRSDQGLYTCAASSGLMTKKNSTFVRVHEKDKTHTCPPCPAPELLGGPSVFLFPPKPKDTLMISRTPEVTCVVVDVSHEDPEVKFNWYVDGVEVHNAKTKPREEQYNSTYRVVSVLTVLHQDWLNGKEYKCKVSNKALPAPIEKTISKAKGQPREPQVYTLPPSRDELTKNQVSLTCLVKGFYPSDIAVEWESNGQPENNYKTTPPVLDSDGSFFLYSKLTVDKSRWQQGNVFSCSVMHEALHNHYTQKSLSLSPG
Sequence of human VEGFA-165 (human) (P15692 other isoform, or with tags, fused parts or gaps limits assumed): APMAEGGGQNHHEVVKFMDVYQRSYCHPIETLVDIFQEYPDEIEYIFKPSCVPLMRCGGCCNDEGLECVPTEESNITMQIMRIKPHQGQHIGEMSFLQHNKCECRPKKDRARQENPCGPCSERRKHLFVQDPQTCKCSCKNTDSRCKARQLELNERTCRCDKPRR

With Aflibercept-analogue (Fc fusion) as the substance, how does the Kd (human VEGFA-165 (human)) read?
Its Kd is 0.1 pM.

And the Kd [1]?
The Kd was 0.2 pM.

Source: patent US20220073599A1
